In the supplement of paper PMC7877785:
± gives the uncertainty stated by the source.

Assay: self-splicing fitness, log relative to wild type (ln ratio); higher = more splicing; Tetrahymena group I intron in knt gene, E. coli kanamycin selection, DiMSum; sequences stand for … in CUCUCU…GGAGGGAAAAGUUAUCAGGCAUGCACCUGGUAGCUAGUCUUUAAACCAAUAGAUUGCAUCGGUUUAAAAGGCAAGACCGUCAAAUUGCGGGAAAGGGGUCAACAGCCGUUCAGUACCAAGUCUCAGGGGAAACUUUGAGAUGGCCUUGCAAAGGGUAUGGUAAUAAGCUGACGGACAUGGUCCUAACCACGCAGCCAAGUCCUAAGUCAACAGAUCUUCUGUUGAUAUGGAUGCAGUUCACAGACUAAAUGUCGGUCGGGGAAGAUGUAUUCUUCUCAUAAGAUAUAGUCGGACCUCUCCUUAAUGGGAGCUAGCGGAUGAAGUGAUGCAACACUGGAGCCGCUGGGAACUAAUUUGUAUGCGAAAGUAUAUUGAUUAGUUUUGGAGUACUCGUGGUCG
Summary of the method: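 Six replicate transformations of E. coli BL21(DE3) with a pET-22b(+) library were grown overnight at 37°C or 30°C. The library randomised all eight P1ex-region intron nucleotides, the intron lying in the knt kanamycin-resistance gene, and plates were LB agar with or without 25 μg/mL kanamycin plus 100 μg/mL carbenicillin, 50 μM IPTG and 0.2% rhamnose. Pooled colonies were amplicon-sequenced on an Illumina HiSeq 2500, and fitness is the DiMSum error-weighted combination of wild-type-normalised replicate fold changes, kanamycin versus none.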

## AUACAGCAAUAUUACGCAUA
30 °C
  self-splicing fitness (ln): -1.54 ± 0.12
37 °C
  self-splicing fitness (ln): -0.743 ± 0.13

## UACUAGCAAUAUUACGAUCA
30 °C
  self-splicing fitness (ln): -1.21 ± 0.07
37 °C
  self-splicing fitness (ln): -0.774 ± 0.063

## UCUGAGCAAUAUUACGUGAC
30 °C
  self-splicing fitness (ln): -2.99 ± 0.2
37 °C
  self-splicing fitness (ln): -2.97 ± 0.27

## CCAUAGCAAUAUUACGGUAG
30 °C
  self-splicing fitness (ln): -2.01 ± 0.1
37 °C
  self-splicing fitness (ln): -0.787 ± 0.11

## AGAUAGCAAUAUUACGGAGG
30 °C
  self-splicing fitness (ln): -4.37 ± 0.26
37 °C
  self-splicing fitness (ln): -3.22 ± 0.26

## UCGCAGCAAUAUUACGUCUG
37 °C
  self-splicing fitness (ln): -1.97 ± 0.18

## GAUAAGCAAUAUUACGCCUG
30 °C
  self-splicing fitness (ln): -0.902 ± 0.09
37 °C
  self-splicing fitness (ln): 0.488 ± 0.13

## AUCCAGCAAUAUUACGCGUA
30 °C
  self-splicing fitness (ln): -0.536 ± 0.089
37 °C
  self-splicing fitness (ln): -0.499 ± 0.097

## UACUAGCAAUAUUACGCUAA
30 °C
  self-splicing fitness (ln): -1.31 ± 0.14
37 °C
  self-splicing fitness (ln): -0.697 ± 0.1

## GUAGAGCAAUAUUACGCAUC
30 °C
  self-splicing fitness (ln): -1.49 ± 0.13
37 °C
  self-splicing fitness (ln): -1.37 ± 0.15

## CGGGAGCAAUAUUACGUCGG
30 °C
  self-splicing fitness (ln): -2.52 ± 0.14
37 °C
  self-splicing fitness (ln): -1.66 ± 0.15

## AUCCAGCAAUAUUACGUAAG
30 °C
  self-splicing fitness (ln): -1.59 ± 0.065
37 °C
  self-splicing fitness (ln): -0.715 ± 0.087

## AUGUAGCAAUAUUACGUUUU
30 °C
  self-splicing fitness (ln): -2.64 ± 0.074
37 °C
  self-splicing fitness (ln): -1.8 ± 0.1

## CAGGAGCAAUAUUACGACAU
30 °C
  self-splicing fitness (ln): -3.768 ± 0.031
37 °C
  self-splicing fitness (ln): -2.94 ± 0.046

## CUAGAGCAAUAUUACGACAC
30 °C
  self-splicing fitness (ln): -3.9 ± 0.39
37 °C
  self-splicing fitness (ln): -2.63 ± 0.48

## GUUCAGCAAUAUUACGUGAG
30 °C
  self-splicing fitness (ln): -0.139 ± 0.044
37 °C
  self-splicing fitness (ln): -0.408 ± 0.062

## GGGGAGCAAUAUUACGGUGU
30 °C
  self-splicing fitness (ln): -3.87 ± 0.37
37 °C
  self-splicing fitness (ln): -1.37 ± 0.22

## CGGGAGCAAUAUUACGAGCU
30 °C
  self-splicing fitness (ln): -3.18 ± 0.41
37 °C
  self-splicing fitness (ln): -1.89 ± 0.38

## GCUGAGCAAUAUUACGUCCC
30 °C
  self-splicing fitness (ln): -0.877 ± 0.092
37 °C
  self-splicing fitness (ln): -0.184 ± 0.11

## CUCUAGCAAUAUUACGAAAC
30 °C
  self-splicing fitness (ln): -2.61 ± 0.35

## AGCUAGCAAUAUUACGUGUU
30 °C
  self-splicing fitness (ln): -1.86 ± 0.14
37 °C
  self-splicing fitness (ln): -2.11 ± 0.14

## CAGGAGCAAUAUUACGAAGG
30 °C
  self-splicing fitness (ln): -1.43 ± 0.13
37 °C
  self-splicing fitness (ln): -0.955 ± 0.18

## CAUAAGCAAUAUUACGGGCG
30 °C
  self-splicing fitness (ln): -0.054 ± 0.08
37 °C
  self-splicing fitness (ln): 0.166 ± 0.092

## UACUAGCAAUAUUACGACUU
30 °C
  self-splicing fitness (ln): -1.27 ± 0.08
37 °C
  self-splicing fitness (ln): -0.271 ± 0.11

## UGACAGCAAUAUUACGAUGG
30 °C
  self-splicing fitness (ln): -1.5 ± 0.084
37 °C
  self-splicing fitness (ln): 0.221 ± 0.12

## GCACAGCAAUAUUACGGUCG
30 °C
  self-splicing fitness (ln): -0.697 ± 0.043
37 °C
  self-splicing fitness (ln): -0.246 ± 0.057

## GGGAAGCAAUAUUACGGAAC
30 °C
  self-splicing fitness (ln): -2.09 ± 0.2
37 °C
  self-splicing fitness (ln): -2.13 ± 0.27

## UCGUAGCAAUAUUACGAGUG
30 °C
  self-splicing fitness (ln): -3.62 ± 0.32
37 °C
  self-splicing fitness (ln): -3.09 ± 0.3

## UUACAGCAAUAUUACGCUGA
30 °C
  self-splicing fitness (ln): -3.22 ± 0.17
37 °C
  self-splicing fitness (ln): -2.55 ± 0.19

## GUUAAGCAAUAUUACGAGCA
30 °C
  self-splicing fitness (ln): -1.9 ± 0.12
37 °C
  self-splicing fitness (ln): -0.552 ± 0.11

## UGAGAGCAAUAUUACGCCCA
30 °C
  self-splicing fitness (ln): -1.49 ± 0.26

## GCGUAGCAAUAUUACGACAA
30 °C
  self-splicing fitness (ln): -0.888 ± 0.12
37 °C
  self-splicing fitness (ln): -0.789 ± 0.13

## CAUCAGCAAUAUUACGGGGC
30 °C
  self-splicing fitness (ln): -4 ± 0.16
37 °C
  self-splicing fitness (ln): -2.01 ± 0.15

## UGGAAGCAAUAUUACGUACA
30 °C
  self-splicing fitness (ln): -0.926 ± 0.1
37 °C
  self-splicing fitness (ln): 0.227 ± 0.11

## CCUUAGCAAUAUUACGGAAA
30 °C
  self-splicing fitness (ln): -3.07 ± 0.24

## CUCGAGCAAUAUUACGUCAG
37 °C
  self-splicing fitness (ln): -0.401 ± 0.39

## CGUCAGCAAUAUUACGGUUG
30 °C
  self-splicing fitness (ln): -0.45 ± 0.065
37 °C
  self-splicing fitness (ln): -0.256 ± 0.081

## CAAUAGCAAUAUUACGGAGU
30 °C
  self-splicing fitness (ln): -4.14 ± 0.43
37 °C
  self-splicing fitness (ln): -2.04 ± 0.25

## CCGCAGCAAUAUUACGGGCU
30 °C
  self-splicing fitness (ln): -3.56 ± 0.18
37 °C
  self-splicing fitness (ln): -3.05 ± 0.22

## CCUGAGCAAUAUUACGGAAU
30 °C
  self-splicing fitness (ln): -4.68 ± 0.23
37 °C
  self-splicing fitness (ln): -2.85 ± 0.16

## UCUGAGCAAUAUUACGGUCA
30 °C
  self-splicing fitness (ln): -2.5 ± 0.29
37 °C
  self-splicing fitness (ln): -1.7 ± 0.29

## AAAGAGCAAUAUUACGUGUA
30 °C
  self-splicing fitness (ln): -3.3 ± 0.16
37 °C
  self-splicing fitness (ln): -2.27 ± 0.22

## AGCAAGCAAUAUUACGCAUG
30 °C
  self-splicing fitness (ln): -3.32 ± 0.16
37 °C
  self-splicing fitness (ln): -2.74 ± 0.2

## UUCAAGCAAUAUUACGGUUC
30 °C
  self-splicing fitness (ln): -4.02 ± 0.32
37 °C
  self-splicing fitness (ln): -2.78 ± 0.48

## GGGAAGCAAUAUUACGACUA
30 °C
  self-splicing fitness (ln): -0.9 ± 0.15
37 °C
  self-splicing fitness (ln): 0.352 ± 0.17

## GGGUAGCAAUAUUACGGUAG
37 °C
  self-splicing fitness (ln): -1.91 ± 0.23

## UAUCAGCAAUAUUACGUUAU
30 °C
  self-splicing fitness (ln): -3.07 ± 0.11
37 °C
  self-splicing fitness (ln): -1.89 ± 0.1

## GCGAAGCAAUAUUACGUACC
30 °C
  self-splicing fitness (ln): -1.02 ± 0.17
37 °C
  self-splicing fitness (ln): 0.269 ± 0.19

## CUCAAGCAAUAUUACGGGAA
30 °C
  self-splicing fitness (ln): -2.51 ± 0.16
37 °C
  self-splicing fitness (ln): -1.19 ± 0.14
